These results are taken from paper PMC7698151, “Evidence for Pentapeptide-Dependent and Independent CheB Methylesterases” (International Journal of Molecular Sciences, 2020).

Like-named read-outs stand apart in the source and are kept apart here.

Experiment [1] addresses Tar pentapeptide (Escherichia coli). As to conditions: cited from earlier work.
In experiment [2] the target is P. aeruginosa PAO1 CheB2 D55E mutant (Pseudomonas aeruginosa PAO1) (UniProt Q9I6V9). The experiment can be described thus: ITC. On the technique in general: ITC needs no label: the signal is the heat of the interaction.
The target in experiment [3] is Tar methylation site (Escherichia coli) (UniProt P07017). The following applies: cited from earlier work.
The target in experiment [4] is Tar pentapeptide (Escherichia coli). As to conditions: cited from earlier work. The source holds these as a separate data set.
In experiment [5] the target is McpB (Aer2) pentapeptide (Pseudomonas aeruginosa). As to conditions: cited from earlier work.

Chain of CheR (P07364 whole entry): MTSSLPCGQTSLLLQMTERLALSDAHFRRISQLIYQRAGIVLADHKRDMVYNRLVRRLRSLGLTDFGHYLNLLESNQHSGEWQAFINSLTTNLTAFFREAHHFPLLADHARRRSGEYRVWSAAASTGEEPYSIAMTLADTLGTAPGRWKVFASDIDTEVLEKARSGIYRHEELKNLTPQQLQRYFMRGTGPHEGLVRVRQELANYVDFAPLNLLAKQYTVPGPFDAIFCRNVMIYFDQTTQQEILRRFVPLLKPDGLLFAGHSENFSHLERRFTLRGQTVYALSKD
Chain of CheB (P07330 whole entry): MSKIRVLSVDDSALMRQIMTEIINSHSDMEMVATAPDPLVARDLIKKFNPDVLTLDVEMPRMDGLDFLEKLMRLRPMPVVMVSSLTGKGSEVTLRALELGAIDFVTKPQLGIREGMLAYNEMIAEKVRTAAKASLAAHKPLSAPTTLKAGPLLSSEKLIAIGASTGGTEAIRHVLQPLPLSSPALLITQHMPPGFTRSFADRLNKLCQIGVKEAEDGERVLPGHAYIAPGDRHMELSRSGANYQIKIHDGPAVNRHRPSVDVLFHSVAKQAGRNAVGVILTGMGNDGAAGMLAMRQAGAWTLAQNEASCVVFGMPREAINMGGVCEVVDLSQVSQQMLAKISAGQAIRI

Regarding CheB (from UniProt P07330), the Kd – broadly, the concentration at which binding is half-saturated – in experiment [1] was 145 µM.

As for “[…] pentapeptide of the McpB (Aer2) chemoreceptor”, in experiment [2], the Kd was determined as 56 µM.

Turning to CheR (from UniProt P07364), the dissociation constant (Kd) in experiment [3] is 150 µM; in experiment [4], 2000 nM.

Take CheR2 (from UniProt Q9I6V7): in experiment [5], the dissociation constant Kd was 520 nM.
